Columns and labels:
RWIQYKGH = molecular target: T1, RWIQYKGH; assay: peptide microarray, 8mer on the chip, 1 µg/mL LY75_A1, anti-human IgG Alexa 647
T1 construct: LY75 8mer on the microarray
T1 peptide: RWIQYKGH
Experimental: (§1) The peptide microarray analysis was performed by LC Sciences, Houston Tex., in brief the method comprised the following steps: —Contiguous 8mer peptides of LY75 protein having […] spanning residues 216 to 1666 of the full length LY75 protein were synthesized and immobilized on a microarray chip. The chip comprised three panels such that the experiment was performed in triplicate. […] The binding assay was performed under the following conditions:—
(§2) The microarray comprising the contiguous peptides in triplicate was washed with 1 mL of binding buffer at 4° C. for 20 min. […] The array was again washed with 0.5 mL of washing buffer at 4° C. for 30 min then incubated with 25 ng/mL anti-human IgG Alexa 647 conjugate in binding buffer (pH 7.0) at 4° C. for 1 hr. The array was again washed with 0.5 mL of washing buffer at 4° C. for 30 min.

GSRWIQYK = molecular target: T2, GSRWIQYK; assay: as above
T2 construct: LY75 8mer on the microarray
T2 peptide: GSRWIQYK
Experimental: as §1, §2

SCYKVFHA = molecular target: T3, SCYKVFHA; assay: as above
T3 construct: LY75 8mer on the microarray
T3 peptide: SCYKVFHA
Experimental: as §1, §2

TSCSERHF = molecular target: T4, TSCSERHF; assay: as above
T4 construct: LY75 8mer on the microarray
T4 peptide: TSCSERHF
Experimental: as §1, §2

YPWHRFPV = molecular target: T5, YPWHRFPV; assay: as above
T5 construct: LY75 8mer on the microarray
T5 peptide: YPWHRFPV
Experimental: as §1, §2

WHRFPVTF = molecular target: T6, WHRFPVTF; assay: as above
T6 construct: LY75 8mer on the microarray
T6 peptide: WHRFPVTF
Experimental: as §1, §2

SRWIQYKG = molecular target: T7, SRWIQYKG; assay: as above
T7 construct: LY75 8mer on the microarray
T7 peptide: SRWIQYKG
Experimental: as §1, §2

LSCYKVFH = molecular target: T8, LSCYKVFH; assay: as above
T8 construct: LY75 8mer on the microarray
T8 peptide: LSCYKVFH
Experimental: as §1, §2

DHFTYSRY = molecular target: T9, DHFTYSRY; assay: as above
T9 construct: LY75 8mer on the microarray
T9 peptide: DHFTYSRY
Experimental: as §1, §2

AVYFHQHS = molecular target: T10, AVYFHQHS; assay: as above
T10 construct: LY75 8mer on the microarray
T10 peptide: AVYFHQHS
Experimental: as §1, §2

SCSERHFV = molecular target: T11, SCSERHFV; assay: as above
T11 construct: LY75 8mer on the microarray
T11 peptide: SCSERHFV
Experimental: as §1, §2

YKSDQALH = molecular target: T12, YKSDQALH; assay: as above
T12 construct: LY75 8mer on the microarray
T12 peptide: YKSDQALH
Experimental: as §1, §2

EAVYFHQH = molecular target: T13, EAVYFHQH; assay: as above
T13 construct: LY75 8mer on the microarray
T13 peptide: EAVYFHQH
Experimental: as §1, §2

PWRRGWHF = molecular target: T14, PWRRGWHF; assay: as above
T14 construct: LY75 8mer on the microarray
T14 peptide: PWRRGWHF
Experimental: as §1, §2

FTSCSERH = molecular target: T15, FTSCSERH; assay: as above
T15 construct: LY75 8mer on the microarray
T15 peptide: FTSCSERH
Experimental: as §1, §2

QYKGHCYK = molecular target: T16, QYKGHCYK; assay: as above
T16 construct: LY75 8mer on the microarray
T16 peptide: QYKGHCYK
Experimental: as §1, §2

YSNFHPLL = molecular target: T17, YSNFHPLL; assay: as above
T17 construct: LY75 8mer on the microarray
T17 peptide: YSNFHPLL
Experimental: as §1, §2

YKGHCYKS = molecular target: T18, YKGHCYKS; assay: as above
T18 construct: LY75 8mer on the microarray
T18 peptide: YKGHCYKS
Experimental: as §1, §2

RYPWHRFP = molecular target: T19, RYPWHRFP; assay: as above
T19 construct: LY75 8mer on the microarray
T19 peptide: RYPWHRFP
Experimental: as §1, §2

PWHRFPVT = molecular target: T20, PWHRFPVT; assay: as above
T20 construct: LY75 8mer on the microarray
T20 peptide: PWHRFPVT
Experimental: as §1, §2

LTYSNFHP = molecular target: T21, LTYSNFHP; assay: as above
T21 construct: LY75 8mer on the microarray
T21 peptide: LTYSNFHP
Experimental: as §1, §2

[1] = molecular target: Contiguous 8mer peptides of LY75 protein spanning residues 216 to 1666 of the full length LY75 protein (peptide microarray); assay: peptide microarray, 1 ug/mL LY75_A1, scanned at 635 nm; cut off for non-specific binding 3000
LY75 883-901 = molecular target: T22, LY75 883-901 (human); assay: peptide microarray; region identified by signal above the cut off
T22 construct: Region put together from overlapping 8mers on the array
T22 peptide: DDHFTYSRYPWHRFPVTFG
Experimental: as §1, §2

LY75 761-780 = molecular target: T23, LY75 761-780 (human); assay: as above
T23 construct: Region put together from overlapping 8mers on the array; also called Region 3 (aa761-780)
T23 peptide: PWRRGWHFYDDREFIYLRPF
Experimental: as §1, §2

LY75 1107-1118 = molecular target: T24, LY75 1107-1118 (human); assay: as above
T24 construct: Region put together from overlapping 8mers on the array
T24 peptide: TVKYLNNLYKII
Experimental: as §1, §2

LY75 1077-1093 = molecular target: T25, LY75 1077-1093 (human); assay: as above
T25 construct: Region put together from overlapping 8mers on the array
T25 peptide: FTSCSERHFVSLCQKYS
Experimental: as §1, §2

LY75 1029-1040 = molecular target: T26, LY75 1029-1040 (human); assay: as above
T26 construct: Region put together from overlapping 8mers on the array
T26 peptide: RELTYSNFHPLL
Experimental: as §1, §2

B1: LY75_A1 monoclonal antibody (antibody, human IgG1, kappa, V domains shown)
VH: EVQLVESGGGLVKPGGSLRLSCAASGFTYSNAWMSWVRQAPGKGLEWVGRIKSKTDGGTTDYAAPVQGRFTISRDDSKNTLYLQMNSLKTEDTAVYYCTIFGVVSFDYWGQGTLVTVSS
VL: DVQMTQSPSSLSASVGDRVTITCRASQSISDYLSWYQQRPGKAPNLLIYAASNLKTGVPSRFSGSGSGTDFTLTISTLQPEDFATYYCQQSYRSPWTFGQGTKVEIKR
notes: also called LY75A1 antibody; antibody LY75_A1
- binding result (RWIQYKGH): binds
- binding result (GSRWIQYK): binds
- binding result (SCYKVFHA): binds
- binding result (TSCSERHF): binds
- binding result (YPWHRFPV): binds
- binding result (WHRFPVTF): binds
- binding result (SRWIQYKG): binds
- binding result (LSCYKVFH): binds
- binding result (DHFTYSRY): binds
- binding result (AVYFHQHS): binds
- binding result (SCSERHFV): binds
- binding result (YKSDQALH): binds
- binding result (EAVYFHQH): binds
- binding result (PWRRGWHF): binds
- binding result (FTSCSERH): binds
- binding result (QYKGHCYK): binds
- binding result (YSNFHPLL): binds
- binding result (YKGHCYKS): binds
- binding result (RYPWHRFP): binds
- binding result (PWHRFPVT): binds
- binding result (LTYSNFHP): binds
- average signal intensity of all spots (signal intensity (scale 1-65535)) [1]: 885
- maximum signal intensity (signal intensity (scale 1-65535)) [1]: 25000
- binding result (LY75 883-901): binds
- binding result (LY75 761-780): binds
- binding result (LY75 1107-1118): binds
- binding result (LY75 1077-1093): binds
- binding result (LY75 1029-1040): binds

— US20210113690A1 (BERLIN CHEMIE, published 2021)
